Laboratory results: paper PMC9463131, “SLITRK1-mediated noradrenergic projection suppression in the neonatal prefrontal cortex” (Communications Biology, 2022)

Tests used:
Test in all cases: BLI
[1] = molecular target: T1, human PTPRD ECD-His6 (ACROBiosystems) (human, UniProt P23468 21-1265)
T1 chain: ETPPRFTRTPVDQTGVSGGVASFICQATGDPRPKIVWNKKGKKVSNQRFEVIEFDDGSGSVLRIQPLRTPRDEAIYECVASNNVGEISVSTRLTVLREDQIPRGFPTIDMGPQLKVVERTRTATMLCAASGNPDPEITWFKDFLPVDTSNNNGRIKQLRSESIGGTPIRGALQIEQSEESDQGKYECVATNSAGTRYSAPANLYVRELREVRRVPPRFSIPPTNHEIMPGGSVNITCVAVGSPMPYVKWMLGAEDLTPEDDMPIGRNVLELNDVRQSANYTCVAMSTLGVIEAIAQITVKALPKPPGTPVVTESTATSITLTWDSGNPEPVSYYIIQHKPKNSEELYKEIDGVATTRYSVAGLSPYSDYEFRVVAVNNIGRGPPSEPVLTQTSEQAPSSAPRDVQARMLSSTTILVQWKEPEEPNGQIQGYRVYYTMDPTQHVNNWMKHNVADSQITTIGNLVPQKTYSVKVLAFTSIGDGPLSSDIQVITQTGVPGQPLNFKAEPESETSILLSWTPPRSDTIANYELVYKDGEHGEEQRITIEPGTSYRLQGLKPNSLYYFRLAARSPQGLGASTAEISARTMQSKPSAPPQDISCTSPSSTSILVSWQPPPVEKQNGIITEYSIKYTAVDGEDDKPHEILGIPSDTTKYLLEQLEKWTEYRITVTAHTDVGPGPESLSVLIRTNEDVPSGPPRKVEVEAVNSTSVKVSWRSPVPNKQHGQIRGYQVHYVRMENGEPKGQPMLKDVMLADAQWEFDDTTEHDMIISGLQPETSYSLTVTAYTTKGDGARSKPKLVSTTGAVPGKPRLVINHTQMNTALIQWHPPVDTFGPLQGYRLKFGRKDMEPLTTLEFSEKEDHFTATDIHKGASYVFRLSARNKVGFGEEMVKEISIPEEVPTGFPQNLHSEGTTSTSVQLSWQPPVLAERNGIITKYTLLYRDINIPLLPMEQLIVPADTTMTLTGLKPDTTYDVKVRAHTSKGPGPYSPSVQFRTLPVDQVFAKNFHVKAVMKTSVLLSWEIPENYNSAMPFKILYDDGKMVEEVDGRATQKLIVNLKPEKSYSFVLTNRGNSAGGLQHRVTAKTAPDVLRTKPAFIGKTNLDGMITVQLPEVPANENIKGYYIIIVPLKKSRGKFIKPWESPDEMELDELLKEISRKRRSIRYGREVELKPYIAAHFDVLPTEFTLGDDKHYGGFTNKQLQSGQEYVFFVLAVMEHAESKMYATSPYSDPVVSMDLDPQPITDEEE

[2] = molecular target: T2, human Neurofascin ECD-His6 (8208-NF-050, R&D Systems) (human)
T2 chain: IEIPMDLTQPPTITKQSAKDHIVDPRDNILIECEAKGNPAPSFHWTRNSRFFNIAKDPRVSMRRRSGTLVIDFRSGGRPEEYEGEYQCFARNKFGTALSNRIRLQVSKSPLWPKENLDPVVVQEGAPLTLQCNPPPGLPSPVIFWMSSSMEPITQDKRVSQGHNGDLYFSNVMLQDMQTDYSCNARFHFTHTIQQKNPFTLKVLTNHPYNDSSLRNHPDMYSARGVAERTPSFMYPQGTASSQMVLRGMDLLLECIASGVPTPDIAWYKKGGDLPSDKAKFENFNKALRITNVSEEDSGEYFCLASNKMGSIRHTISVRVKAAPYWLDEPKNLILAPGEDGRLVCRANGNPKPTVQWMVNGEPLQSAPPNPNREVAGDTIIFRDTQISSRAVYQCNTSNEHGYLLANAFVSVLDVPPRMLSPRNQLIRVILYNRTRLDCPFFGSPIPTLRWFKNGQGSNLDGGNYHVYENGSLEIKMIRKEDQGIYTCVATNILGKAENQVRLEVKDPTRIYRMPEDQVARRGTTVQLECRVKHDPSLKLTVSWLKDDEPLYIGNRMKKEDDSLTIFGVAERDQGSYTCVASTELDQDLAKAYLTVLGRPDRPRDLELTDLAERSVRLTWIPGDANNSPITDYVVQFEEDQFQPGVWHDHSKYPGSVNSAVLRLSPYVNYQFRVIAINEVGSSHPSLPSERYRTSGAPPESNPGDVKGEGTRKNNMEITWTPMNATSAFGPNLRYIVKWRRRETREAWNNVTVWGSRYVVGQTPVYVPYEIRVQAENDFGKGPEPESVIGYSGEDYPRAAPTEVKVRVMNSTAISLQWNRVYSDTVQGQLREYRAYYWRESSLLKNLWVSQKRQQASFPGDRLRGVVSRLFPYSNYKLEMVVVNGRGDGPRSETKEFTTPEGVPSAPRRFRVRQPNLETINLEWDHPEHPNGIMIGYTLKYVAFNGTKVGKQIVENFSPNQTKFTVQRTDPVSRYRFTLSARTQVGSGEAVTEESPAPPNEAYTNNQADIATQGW

[3] = molecular target: T3, L1CAM ECD-His6 (777-NC-100, R&D Systems) (UniProt P32004 20-1120)
T3 chain: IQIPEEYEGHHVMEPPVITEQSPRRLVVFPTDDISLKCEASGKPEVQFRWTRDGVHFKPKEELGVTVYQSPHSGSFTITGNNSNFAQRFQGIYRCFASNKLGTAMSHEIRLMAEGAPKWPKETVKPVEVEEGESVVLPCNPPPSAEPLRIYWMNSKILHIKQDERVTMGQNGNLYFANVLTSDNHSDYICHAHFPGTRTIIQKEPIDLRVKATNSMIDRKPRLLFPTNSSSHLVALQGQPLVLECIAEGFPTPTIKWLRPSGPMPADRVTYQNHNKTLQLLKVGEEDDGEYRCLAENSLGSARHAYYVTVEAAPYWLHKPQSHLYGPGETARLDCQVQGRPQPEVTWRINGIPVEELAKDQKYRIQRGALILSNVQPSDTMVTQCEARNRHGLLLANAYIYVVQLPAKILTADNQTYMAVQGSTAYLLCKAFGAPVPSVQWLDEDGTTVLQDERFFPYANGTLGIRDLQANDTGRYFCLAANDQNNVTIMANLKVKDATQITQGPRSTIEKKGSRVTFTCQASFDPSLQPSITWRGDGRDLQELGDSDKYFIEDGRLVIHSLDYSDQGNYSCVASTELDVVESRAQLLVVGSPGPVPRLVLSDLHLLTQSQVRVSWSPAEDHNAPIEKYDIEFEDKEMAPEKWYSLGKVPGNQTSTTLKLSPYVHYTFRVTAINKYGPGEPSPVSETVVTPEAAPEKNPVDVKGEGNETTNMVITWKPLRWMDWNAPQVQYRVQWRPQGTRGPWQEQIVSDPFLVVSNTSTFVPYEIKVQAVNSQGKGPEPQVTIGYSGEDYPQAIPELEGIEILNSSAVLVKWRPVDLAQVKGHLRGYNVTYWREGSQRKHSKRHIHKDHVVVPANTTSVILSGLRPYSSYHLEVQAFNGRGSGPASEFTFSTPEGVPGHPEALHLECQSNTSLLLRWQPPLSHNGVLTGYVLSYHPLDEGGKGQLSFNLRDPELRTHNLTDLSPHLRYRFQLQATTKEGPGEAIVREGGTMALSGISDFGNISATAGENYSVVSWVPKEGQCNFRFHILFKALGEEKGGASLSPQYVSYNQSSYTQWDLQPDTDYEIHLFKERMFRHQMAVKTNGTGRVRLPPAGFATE

B1: SLITRK1 ECD-immunoglobulin Fc domain-fusion protein (SLITRK1-WT-Fc) (Fc fusion)
chain: NVTGDVCKEKICSCNEIEGDLHVDCEKKGFTSLQRFTAPTSQFYHLFLHGNSLTRLFPNEFANFYNAVSLHMENNGLHEIVPGAFLGLQLVKRLHINNNKIKSFRKQTFLGLDDLEYLQADFNLLRDIDPGAFQDLNKLEVLILNDNLISTLPANVFQYVPITHLDLRGNRLKTLPYEEVLEQIPGIAEILLEDNPWDCTCDLLSLKEWLENIPKNALIGRVVCEAPTRLQGKDLNETTEQDLCPLKNRVDSSLPAPPAQEETFAPGPLPTPFKTNGQEDHATPGSAPNGGTKIPGNWQIKIRPTAAIATGSSRNKPLANSLPCPGGCSCDHIPGSGLKMNCNNRNVSSLADLKPKLSNVQELFLRDNKIHSIRKSHFVDYKNLILLDLGNNNIATVENNTFKNLLDLRWLYMDSNYLDTLSREKFAGLQNLEYLNVEYNAIQLILPGTFNAMPKLRILILNNNLLRSLPVDVFAGVSLSKLSLHNNYFMYLPVAGVLDQLTSIIQIDLHGNPWECSCTIVPFKQWAERLGSEVLMSDLKCETPVNFFRKDFMLLSNDEICPQLYARISPTLTSHSKNSTGLAETGTHSNSYLDTSRVS
With B1 the koff [1] was 0.00351 s⁻¹, the koff [2] was 0.00256 s⁻¹ and the koff [3] was 0.00088 s⁻¹.
